For this experiment, the target named is A. thaliana DCL1 DSRM1 (A. thaliana). In words: BLI.

As for “A. thaliana HYL1 DSRM2 (domain or fragment)”, the fold higher affinity than HYL1 DSRM1 for the same target came out at 3.4 fold.

Values taken from paper PMC8557471.
